Test results taken from patent publication US20170081386A1 (APOGENIX, published 2017).

T1: TRAIL-Receptor 1-Fc (R&D Systems) (UniProt O00220 24-239, limits assumed)
T1 construct: Bought reagent; also called Fc-fusion protein of TRAIL-Receptor 1; not shown: Fc part of the bought fusion
T1 sequence (looked up): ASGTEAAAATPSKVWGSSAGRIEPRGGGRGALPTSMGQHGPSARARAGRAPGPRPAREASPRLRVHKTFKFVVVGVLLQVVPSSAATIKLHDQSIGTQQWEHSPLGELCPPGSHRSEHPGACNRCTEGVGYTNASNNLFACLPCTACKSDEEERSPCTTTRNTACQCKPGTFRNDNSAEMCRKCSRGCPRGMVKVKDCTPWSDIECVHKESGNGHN


Tests used:
[1] = target: T1, TRAIL-Receptor 1-Fc (R&D Systems); assay: Streptactin-ELISA, purified trimeric ligand immobilized via Strep-tag II, receptor-Fc detection
Method: (§1) To determine the binding of receptors to constructed ligands, streptactin-coated 96-well microplates were used. Therefore, supernatants from transiently transfected HEK293 cells, mouse sera or purified proteins were immobilized on streptactin-plates (IBA GmbH) for 1-3 hours in PBS. Samples were diluted in ELISA binding/blocking buffer (PBS, 0.1% Tween-20, 20% SuperBlock T20-PBS (Pierce)). Plates were washed with PBS+0.1% Tween-20 and incubated with mouse-anti-TRAIL antibody (Pharmingen, clone RIK-2), TRAIL-Receptor 1-Fc (R&D Systems), TRAIL-Receptor 2-Fc (R&D Systems), TACl-Fc (R&D Systems) or HVEM-Fc (R&D Systems) for one hour at room temperature. Plates were again washed and Fc-proteins were detected with anti-human- or anti-mouse-Fc-specific peroxidase-conjugated antibodies (Sigma). Colour reaction was done by addition of 100 μl per well of TMB substrate (Kem-En-Tec Diagnostics) and the absorbance at 450 nm and 630 nm was determined with an ELISA reader after addition of 25 μl of 25% H₂SO₄ as stop-solution. Values were calculated as 450 nm-630 nm with MS Excel.
Varying concentrations (0-10 microgram/ml) of affinity and SEC purified, trimeric LIGHT-ASPD were used for immobilized via the Strep-tag II on Streptactin-coated microplates. LIGHT-ASPD was then detected in a ELISA set-up using 100 ng/ml of Fc-fusion proteins of the receptors HVEM and TRAIL-Receptor 1, respectively. […]

[2] = target: T1, TRAIL-Receptor 1-Fc (R&D Systems); assay: Streptactin-ELISA (FIG. 14A), supernatant immobilized, constant concentration of TRAIL-Receptor 1-Fc
Method: as §1
The selectivity of TRAIL-Receptor 1 or TRAIL-Receptor 2 towards fusion proteins of SPD/ccSPD and TRAIL, TRAILR1mut and TRAILR2mut was shown by Streptactin-ELISA. Therefore, TRAIL-SPD-fusion proteins in supernatants from transiently transfected HEK293 cells were immobilized on Streptactin coated microplates. Cell supernatant from untransfected cells served as negative control. Specifically bound proteins were detected with constant (A, B) or varying (C, D) concentrations of either TRAIL-Receptor 1-Fc or TRAIL-Receptor 2-Fc. As shown in (A), the ligand TRAILR1mut fused to SPD variants is deteced by TRAIL-Receptor 1, whereas the ligand TRAILR2mut is not. As shown in (B), the ligand TRAILR2mut is preferentially detected by TRAIL-Receptor 2, whereas TRAILR1mut-and TRAIL wild-type constructs are equally well detected. As shown in C, TRAIL-Receptor 1-Fc bound to TRAIL-R1 mut-ASPD and TRAIL-ASPD equally well over the whole receptor titration range, whereas TRAIL-R2mut-ASPD is not detected. As shown in D, TRAIL-Receptor 2-Fc bound to TRAIL-R2mut-ASPD and TRAIL-ASPD equally well over the receptor titration range analyzed, whereas the signal for TRAIL-R1mut-ASPD decreased rapidely with decreasing concentrations of receptor.

Binder | binding result [1] | binding result [2]
LIGHT-ASPD (ligand, also called Sp-LIGHT-ASPD; LIGHT fusion protein) EVNPAAHLTGANSSLTGSGGPLLWETQLGLAFLRGLSYHDGALVVTKAGYYYIYSKVQLGGVGCPLGLASTITHGLYKRTPRYPEELELLVSQQSPCGRATSSSRVWWDSSFLGGVVHLEAGEEVVVRVLDERLVRLRDGTRSYFGAFMVGSSGSSGSSGSGLPDVASLRQQVEALQGQVQHLQAAFSQYKKVELFPNGQSVGEKIFKTAGFVKPFTEAQLLCTQAGGQLASPRSAAENAALQQLVVAKNEAAFLSMTDSKTEGKFTYPTGESLVYSNWAPGEPNDDGGSEDCVEIFTNGKWNDRACGEKRLVVCEFGGSPSSSSSSAWSHPQFEK | no binding | 
TRAILR2mut-A-CCSPD (ligand, it is assembled from the construct description; also called TRAILR2mut (member of the SPD variants)) QRVAAHITGTRGRSNTLSSPNSKNEKALGRKINSWESSRSGHSFLSNLHLRNGELVIHEKGFYYIYSQTQFKFREEIKENTKNDKQMVQYIYKYTSYPDPILLMKSARNSCWSKDAEYGLYSIYQGGIFELKENDRIFVSVTNERLLQMDHEASFFGAFLVGSSGSSGSSGSGLPDVASLRQQVEALQGQVQHLQAAFSQYKKVELFPNGPSSSSSSAWSHPQFEK |  | no binding
TRAILR2mut-ASPD (ligand, TRAIL-Receptor 2 selective mutein; homotrimer by SEC; also called Sp-TRAILR2mut-ASPD) QRVAAHITGTRGRSNTLSSPNSKNEKALGRKINSWESSRSGHSFLSNLHLRNGELVIHEKGFYYIYSQTQFKFREEIKENTKNDKQMVQYIYKYTSYPDPILLMKSARNSCWSKDAEYGLYSIYQGGIFELKENDRIFVSVTNERLLQMDHEASFFGAFLVGSSGSSGSSGSGLPDVASLRQQVEALQGQVQHLQAAFSQYKKVELFPNGQSVGEKIFKTAGFVKPFTEAQLLCTQAGGQLASPRSAAENAALQQLVVAKNEAAFLSMTDSKTEGKFTYPTGESLVYSNWAPGEPNDDGGSEDCVEIFTNGKWNDRACGEKRLVVCEFGGSPSSSSSSAWSHPQFEK |  | no binding
TRAILR2mut-D-SPD (ligand, it is assembled from the construct description; also called TRAILR2mut (member of the SPD variants)) QRVAAHITGTRGRSNTLSSPNSKNEKALGRKINSWESSRSGHSFLSNLHLRNGELVIHEKGFYYIYSQTQFKFREEIKENTKNDKQMVQYIYKYTSYPDPILLMKSARNSCWSKDAEYGLYSIYQGGIFELKENDRIFVSVTNERLLQMDHEASFFGAFLVGSGLPDVASLRQQVEALQGQVQHLQAAFSQYKKVELFPNGQSVGEKIFKTAGFVKPFTEAQLLCTQAGGQLASPRSAAENAALQQLVVAKNEAAFLSMTDSKTEGKFTYPTGESLVYSNWAPGEPNDDGGSEDCVEIFTNGKWNDRACGEKRLVVCEFGGSPSSSSSSAWSHPQFEK |  | no binding
TRAILR2mut-D-CCSPD (ligand, it is assembled from the construct description; also called TRAILR2mut (member of the SPD variants)) QRVAAHITGTRGRSNTLSSPNSKNEKALGRKINSWESSRSGHSFLSNLHLRNGELVIHEKGFYYIYSQTQFKFREEIKENTKNDKQMVQYIYKYTSYPDPILLMKSARNSCWSKDAEYGLYSIYQGGIFELKENDRIFVSVTNERLLQMDHEASFFGAFLVGSGLPDVASLRQQVEALQGQVQHLQAAFSQYKKVELFPNGPSSSSSSAWSHPQFEK |  | no binding
